Experimental data as given in the supplement of paper PMC7125110.
± gives the standard error. Fewer inactive variants are shown than the library holds.

B1: glmS ribozyme (parent)
chain: AUAAAAGCGCCAGAACUACAGAAAUGUAGUUGACGAGGAGGAGGUUUAUCGAAUUUUCGGCGGAUGCCUCCAAA

How the values were obtained:
Settings in all cases: with glucosamine-6-phosphate
glucosamine-6-phosphate [1] = variants of: B1; experiment: self-cleavage kobs at 40 uM GlcN6P; higher = faster cleavage; RNA array
Procedure, shortened: (§1)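 Over ~14 h at 37 °C, tiles were imaged as glucosamine-6-phosphate (40 μM to 10 mM) in HEPES/KCl/Mg(OAc)2 buffer flowed across sequenced MiSeq chips. The chips carried barcoded ribozyme variants transcribed in situ by E. coli RNA polymerase and tracked with a hybridised Cy3 probe. After normalisation to baseline and to non-cleaving reference variants, one- or two-exponential decay fits of per-tile medians gave kobs. kcat and KM followed from weighted Michaelis–Menten fits across concentrations.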

glucosamine-6-phosphate [2] = variants of: B1; experiment: self-cleavage kobs at 640 uM GlcN6P; higher = faster cleavage; RNA array
Procedure, shortened: as §1

glucosamine-6-phosphate [3] = variants of: B1; experiment: self-cleavage kobs at 160 uM GlcN6P; higher = faster cleavage; RNA array
Procedure, shortened: as §1

glucosamine-6-phosphate [4] = variants of: B1; experiment: self-cleavage kobs at 2500 uM GlcN6P; higher = faster cleavage; RNA array
Procedure, shortened: as §1

glucosamine-6-phosphate [5] = variants of: B1; experiment: self-cleavage kobs at 10000 uM GlcN6P; higher = faster cleavage; RNA array
Procedure, shortened: as §1

| Variant | self-cleavage kobs at 40 uM GlcN6P (glucosamine-6-phosphate [1]) | self-cleavage kobs at 640 uM GlcN6P (glucosamine-6-phosphate [2]) | self-cleavage kobs at 160 uM GlcN6P (glucosamine-6-phosphate [3]) | self-cleavage kobs at 2500 uM GlcN6P (glucosamine-6-phosphate [4]) | self-cleavage kobs at 10000 uM GlcN6P (glucosamine-6-phosphate [5]) |
| --- | --- | --- | --- | --- | --- |
| AUAAAAGCGGCAGAACUACAGAAAUGUAGUUGACGAGGAGGAGGUUGAUCGAAUUUUCGGCGGAUGCCUUGAAA | < 1e-05 s⁻¹ | 0.00148 ± 0.00064 s⁻¹ |  |  |  |
| AUAAAAGCGUCUGAACUACAGAAAUGUAGUUGUCGAGGAGGAGGUUUAUCGAGUUUUUGGCGGAUGCCGCCAAA | 9.07e-05 ± 2.5e-05 s⁻¹ | 0.000216 ± 5.1e-05 s⁻¹ | 0.000159 ± 3.3e-05 s⁻¹ | 0.000132 ± 4.1e-05 s⁻¹ | 6.22e-05 ± 1.8e-05 s⁻¹ |
| AUAAAAGCGUCAGAACUACAGAAAUGUAGUUGACGAGGAGGAGGUUUAUCGAAUUUUCGGUGGAUGCCUCCAAA | < 1e-05 s⁻¹ | < 1e-05 s⁻¹ |  |  | < 1e-05 s⁻¹ |
| AUAAAAGCGUCAGAACUACAGAAAUGUAGUUGACGCGGAGGAGGUUUAUCGAAUUCUCGGCGGAUGCCUCCAAA | < 1e-05 s⁻¹ |  |  |  |  |
| AUAAAAGCGUCAGAAGUACAGAAAUGUAGUUGACCAGGAGGUGGUUUAUCGAAUUUGCAGCGGAUGCCUCCAAA | < 1e-05 s⁻¹ |  |  |  |  |
| AUAAAAGCGUGAGAACUACAGAAAUGUAGUUGACGAGGAGGAGGUUUAUCGAAUUUUCGGCGGAGGCCUCCAAA | < 1e-05 s⁻¹ |  |  |  |  |
| AUAAAAGCGUCAGACCUACAGAAAUGUAGUUGACGAGGAGGAUGUUUAUUGAAUUUGCAGCGGAUGCCUCCAAA | < 1e-05 s⁻¹ | < 1e-05 s⁻¹ | < 1e-05 s⁻¹ | < 1e-05 s⁻¹ | < 1e-05 s⁻¹ |
| AUAAAAGCGUCGGAACUACAGAAAUGUAGUUUACGUGGAGGAGGUUUAUCGAAUUUUCGGCGGAUGCCUUCAAA | < 1e-05 s⁻¹ |  |  |  |  |
| AUAAAAGCGUCAGAGCUACAGAAAUGUAGUUGACGAGGAUGAGGUUUAUCGAAUUUUCGGCGGAUGCCUCCAAA | < 1e-05 s⁻¹ |  |  |  | < 1e-05 s⁻¹ |
| AUAAAAGCGGCAGAACUACAGAAAUGUAGUCGACGAGGAGGAGGUUUAUCGAAUUUUCGGCGGAUGCCUCCAAA | < 1e-05 s⁻¹ |  | < 1e-05 s⁻¹ |  | < 1e-05 s⁻¹ |
| AUAAAAGCGUAAGAACUACAGAAAUGUAGUUGACGAGGAGGAGGUUUAUCGAAUUUUCGGCGGAUGCCUCCAAA | < 1e-05 s⁻¹ |  | < 1e-05 s⁻¹ |  |  |
| AUAAAAGCGUCAGAACUACAGAAAUGUAGUUGAAGAGGAGGAGGUUUAUGGAAUUUUCGGCGGAAGCCUCCAAA | 8.28e-05 ± 3e-05 s⁻¹ |  |  | 6.81e-05 ± 2.9e-05 s⁻¹ | 0.000129 ± 2.8e-05 s⁻¹ |
| AUAAAAGCGUCAGAACUACAGAAAUGUAGUUGACGAGGAGGAGGUUUAUGGAAUUUUCGGCGGAUGCCUGCAAA | 5.33e-05 ± 1.6e-05 s⁻¹ |  |  |  |  |
| AUAAAAGCGUCAGAUCUACAGAAAUGUAGUUGACGAGGAGGAAGUUUAUCGGAUUUUCGGCGGAUGCCUCCAAA | < 1e-05 s⁻¹ |  |  |  | < 1e-05 s⁻¹ |
| AUAAAAGCGUCGGAACUACAGAAAUGUAGUUGACGAGGAGGAUGUUUAUCGAAUUUUCGGCGGAUGCCUCCAAA | < 1e-05 s⁻¹ | < 1e-05 s⁻¹ |  | < 1e-05 s⁻¹ | < 1e-05 s⁻¹ |
| AUAAAAGCGUCAGAACUACAGAAAUGUAGUUGACGAGGAGGAGGUUUAUCGAAUUUUGGGCGGAUGCCUCCAAA | < 1e-05 s⁻¹ |  | < 1e-05 s⁻¹ | < 1e-05 s⁻¹ | < 1e-05 s⁻¹ |
| AUAAAAGCGUCAGAGCUACAGAAAUGUAGUUGACGAGGAGGAGGUUUAUCGAAUUUUCGGCGGAUGGCUCCAAA | < 1e-05 s⁻¹ | 6.46e-05 ± 2.3e-05 s⁻¹ |  |  |  |
| AUAAAAGCGGCAGAACUACAGAAAUGUAGUUGACGAGGAGGAGGUUUAUCGAAUUUUCGGCGGAGGCCUCCAAA | < 1e-05 s⁻¹ | < 1e-05 s⁻¹ | < 1e-05 s⁻¹ | < 1e-05 s⁻¹ | < 1e-05 s⁻¹ |
| AUAAAAGCGGCAGAACUACAGAAAUGUAGUUGACGAGGAGGAGGUUUAUCGAAUUUUCGGCGGAAGCCUCCAAA | < 1e-05 s⁻¹ | < 1e-05 s⁻¹ |  |  | < 1e-05 s⁻¹ |
| AUAAAAGCGGCAGAACUACAGAAAUGUAGUUGACGAGGAGGAGGUGUAUCGAAUUUUCGGCGGAUGCCUCCAAA | < 1e-05 s⁻¹ | < 1e-05 s⁻¹ | < 1e-05 s⁻¹ | < 1e-05 s⁻¹ |  |
| AUAAAAGCGGCAGAACUACAGAAAUGUAGUUGACGAGGAGGAGGUUUAUCGAAGUUUCGGCGGAUGCCUCCAAA | < 1e-05 s⁻¹ | < 1e-05 s⁻¹ | < 1e-05 s⁻¹ | < 1e-05 s⁻¹ |  |
| AUAAAAGCGUCAGAACUACAGAAAUGUAGUUGACGAGGAGGUGGUUUAUCGAAUUUUCGGCGGAUGCCUCCAAA | < 1e-05 s⁻¹ | < 1e-05 s⁻¹ | < 1e-05 s⁻¹ | < 1e-05 s⁻¹ | < 1e-05 s⁻¹ |
| AUAAAAGCGGCAGAACUACAGAAAUGUAGUUGACGAGGAGGAGGUUAAUCGAAUUUUCGUUGGAUGCCUCCAAA | < 1e-05 s⁻¹ |  |  |  |  |
| AUAAAAGCGUCAGAACUACAGAAAUGUAGUUGGCGAGGAGGAGGUUUAUCGAAUUUUCGGCGGAUGCCUCCAAA | < 1e-05 s⁻¹ | < 1e-05 s⁻¹ | < 1e-05 s⁻¹ |  | < 1e-05 s⁻¹ |
| AUAAAAGCGUCAGAACUACAGAAAUGUAGUUGACGAGGAGGAGGUUUAUGGAAUUUGCGGCGGAUGCCUCCAAA | 0.000105 ± 2.4e-05 s⁻¹ |  |  |  | 4.71e-05 ± 1.6e-05 s⁻¹ |
| AUAAAAGCGUCAGGGCUACAGAAAUGUAGUUGACGAGGAGGAAGGUUAUCGGAUUUUCGGCGGGUGCCUCCAAA | < 1e-05 s⁻¹ |  | < 1e-05 s⁻¹ |  | < 1e-05 s⁻¹ |
| AUAAAAGCGUCAGAAUUACAGAAAUGUAGUUGACGAGAAGGAGGUUUGUCGAAUUUUCGGCGGAUGCCUCCAAA | < 1e-05 s⁻¹ |  |  |  | < 1e-05 s⁻¹ |
